Test results taken from patent US20120066777A1 (SHIONOGI, published 2012).

T1: human recombinant CCDC3 protein (human, UniProt Q9BQI4 22-270)
T1 construct: Secreted from Freestyle293 cells, purified from culture supernatant, 3xFlag tag removed with thrombin (31 kDa); the C-terminus at 270 follows from the C-terminus peptide 259-270; Also used biotin-labelled (PEO-maleimide biotin) as tracer; also called human CCDC3 recombinant protein; human CCDC3 protein
T1 sequence: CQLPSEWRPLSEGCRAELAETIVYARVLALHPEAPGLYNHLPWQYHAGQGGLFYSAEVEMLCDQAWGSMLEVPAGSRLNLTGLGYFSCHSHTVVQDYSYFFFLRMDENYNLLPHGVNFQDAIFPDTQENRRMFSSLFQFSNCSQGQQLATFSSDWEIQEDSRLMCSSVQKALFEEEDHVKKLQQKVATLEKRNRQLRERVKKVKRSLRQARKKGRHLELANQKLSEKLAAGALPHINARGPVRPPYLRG


Tests used:
[1] = molecular target: T1, human recombinant CCDC3 protein; test: displacement ELISA: captured antibody, unlabelled human recombinant CCDC3 (0.01 to 100 nM) against biotin-human recombinant CCDC3
Method: A buffer A containing 10 μl of CCDC3 antibody was added to the anti-mouse IgG antibody-anchored plate, and 10 μl of 0.01 to 100 nM human recombinant CCDC3 was added. The mixture was allowed to react at 4° C. for 16 hours after adding buffer A (10 μl) that contained 1 ng of biotin-human recombinant CCDC3 protein and 4 ng of Streptavidin-HRP (PIERCE). Each well was washed three times with washing liquid (90 μl), and 25 μl of TMB+Substrate-Chromogen (DAKO) was added to develop color at room temperature for 30 min. The reaction was stopped by adding 25 μl of 0.5 M sulfuric acid, and absorbance at 450 nm was measured.

[2] = molecular target: T2, human CCDC3 protein C-terminus partial peptide (259-270) (human, PEO-maleimide activated biotin on the added N-terminal Cys); test: raised against the peptide-KLH; hybridoma screened by ELISA on the biotin-labelled peptide
T2 construct: the immunogen was the 12 mer conjugated to KLH; also called biotin-human CCDC3 protein C-terminus region peptide
Method: Specific antibody producing cells were screened 10 days after the cells were fused. Screening was performed by ELISA, as follows. A Tris buffer (50 mM Tris-HCl, pH 7.5, 35 μl) containing anti-mouse IgG antibodies (0.35 μg; Shibayagi Co., Ltd.) was added to each well of a 384-well microtiter plate (Nunc), and the antibodies were immobilized at 4° C. for 16 hours. The wells were washed once with 90 μl of washing liquid (physiological saline containing 0.01% Tween 20), and left unattended at room temperature for 2 hours for blocking after adding […] of Block Ace (Dainippon Pharma) (anti-mouse IgG antibody-anchored plate). After washing each well once with washing liquid (90 μl), a hybridoma culture supernatant (15 μl) and buffer A (10 μl; 50 mM Tris buffer containing 0.5% bovine serum albumin, 0.01% Tween 80, 0.05% Proclin 150, and 0.5 M NaCl; pH 7.4) were added. When the immunogen was the peptide-KLH conjugate, buffer A (10 μl) containing 0.02 ng of the biotin-human CCDC3 protein C-terminus region peptide and 2 ng of Streptavidin-HRP (PIERCE) was added. When the immunogen was the human recombinant CCDC3 protein or its KLH-conjugate, buffer A (10 μl) containing 1 ng of the biotin-human recombinant CCDC3 protein and 4 ng of Streptavidin-HRP (PIERCE) was added. […] The reaction was stopped by adding 25 μl of 0.5 M sulfuric acid, and absorbance at 450 nm was measured.

Binder | IC50 [1] | binding result [2]
3H6 antibody (antibody, IgG2b, V domains shown, Mouse hybridoma monoclonal, isotype IgG2b; From a mouse immunized with antigen 1 (human CCDC3 C-terminus peptide 259-270 conjugated to KLH); Used biotinylated as capture antibody in the sandwich ELISA; also called human anti-CCDC3 antibody 3H6) VH: QIQLVQSGPELKKPGETVKISCKASGYTFTNYGMIWVKQAPGKDLKWMAWINTYSGEPTCADDFKGRFAFSLETSASTAYLQINNLKNEDMATYFCARDDGYYGYFDYWGQGTTLTVSS VL: DVVMTQTPLSLPVSLGDQASISCRSSQTLVHSDGNTYLHWYLQKPGQSPKLLIYKISNRFSGVPDRFSGSGSGTDFTLKISRVEAEDLGVYFCSQSTHVPPTFGGGTKLEIKR | 9.4 nM | binds
6G12 antibody (antibody, IgG1, V domains shown, Mouse hybridoma monoclonal, isotype IgG1; From a mouse immunized with antigen 3 (human recombinant CCDC3); Used biotinylated as capture antibody in the sandwich ELISA; also called human anti-CCDC3 antibody 6G12) VH: QVQLQQPGAELVRPGASVKMSCKASGYTFSSYLMDWVKQRPGQGFECIGNINPNTGSTIYNERFKGKAKLTVDKSSSTAYMQLISLTSEDSAVYYCAADGYYAPFTYWGQGTLVTVSA VL: DIVMTQAAPSVPVTPGESVSISCRSSKSLLHNNGNTYLYWFLQRPGQSPQLLIYRMSNLASGVPDRFSGSGSGTAFTLRISRVEAEDVGVYYCMQHLEYPFTFGAGTKLELKR | 3.2 nM | –
11E10 antibody (antibody, IgG2b, V domains shown, Mouse hybridoma monoclonal, isotype IgG2b; From a mouse immunized with antigen 2 (human recombinant CCDC3-KLH conjugate); also called human anti-CCDC3 antibody 11E10) VH: QVQLQQSGPELVKPGASVKISCKASGYSFRSYYIHWMKQSPGQGLEWIAWIYPGGGKIYYNDNEKFKDKVTLTADTSSSTAYMQLTGLTSEDSAVYFCARWGGYYVGSILDYWGQGTSVTVSS VL: DGDIVMTQSQKFLSTSVGDRVSVTCKASQNVDNNVAWYQQRPGQSPKPLIYLTSSRYSGVPDRFTGSGSGTDFTLTITNVQSEDLAEYFCQQYKTYPLTFSVGTKLELKRA | 0.1 nM | –
